The text below walks through data of publication PMC11150655, “IpaA reveals distinct modes of vinculin activation during Shigella invasion and cell-matrix adhesion” (Life Science Alliance, 2024).

Conditions in all cases: both partners purified
In assay [1] the target is T1, vinculin D1D2 (vinculin residues 1–484) (human, UniProt P18206 1-484).
T1 construct: vinculin, human, head subdomains D1 and D2, residues 1-484; Valencia-Gallardo et al, 2023) for the plasmid and the purification; also called WT; parental D1D2
T1 sequence (looked up): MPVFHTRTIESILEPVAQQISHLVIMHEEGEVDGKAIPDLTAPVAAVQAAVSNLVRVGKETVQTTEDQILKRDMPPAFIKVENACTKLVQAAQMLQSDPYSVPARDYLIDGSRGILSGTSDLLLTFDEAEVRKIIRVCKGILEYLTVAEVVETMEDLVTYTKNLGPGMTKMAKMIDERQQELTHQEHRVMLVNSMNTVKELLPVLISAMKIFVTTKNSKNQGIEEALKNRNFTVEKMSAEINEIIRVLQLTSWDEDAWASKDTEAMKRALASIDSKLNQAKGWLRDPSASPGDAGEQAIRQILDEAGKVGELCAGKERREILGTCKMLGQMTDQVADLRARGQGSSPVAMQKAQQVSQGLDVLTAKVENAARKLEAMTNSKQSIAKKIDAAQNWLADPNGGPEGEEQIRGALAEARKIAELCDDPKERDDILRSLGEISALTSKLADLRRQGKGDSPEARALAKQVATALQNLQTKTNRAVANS
The experiment in a line: native gel or EMSA; band A′ cut from the CN-PAGE gel, run in a second dimension on SDS–PAGE, Coomassie staining and scanning densitometry of D1D2 and aVBD (N = 2). On the technique in general: In EMSA bound probe runs differently from free probe, usually more slowly.

The target in assay [2] is T1, vinculin D1D2 (vinculin residues 1–484). The experiment in a line: native gel or EMSA; CN-PAGE: D1D2 variant (20 μM) with increasing molar ratio of aVBD, 60 min at 21°C; 7.5% (Fig 2, methods) or 10% (Fig 3, S3) native polyacrylamide gel, Coomassie staining, scanning densitometry normalised to monomeric D1D2 without aVBD; rates from linear fits against the aVBD:D1D2 ratio.

The next assay concerns the target T2, vinculin D1D2 D389R (human, UniProt P18206 1-484, D389R).
T2 construct: vinculin, human, head subdomains D1 and D2, residues 1-484, with D389R
T2 sequence (looked up): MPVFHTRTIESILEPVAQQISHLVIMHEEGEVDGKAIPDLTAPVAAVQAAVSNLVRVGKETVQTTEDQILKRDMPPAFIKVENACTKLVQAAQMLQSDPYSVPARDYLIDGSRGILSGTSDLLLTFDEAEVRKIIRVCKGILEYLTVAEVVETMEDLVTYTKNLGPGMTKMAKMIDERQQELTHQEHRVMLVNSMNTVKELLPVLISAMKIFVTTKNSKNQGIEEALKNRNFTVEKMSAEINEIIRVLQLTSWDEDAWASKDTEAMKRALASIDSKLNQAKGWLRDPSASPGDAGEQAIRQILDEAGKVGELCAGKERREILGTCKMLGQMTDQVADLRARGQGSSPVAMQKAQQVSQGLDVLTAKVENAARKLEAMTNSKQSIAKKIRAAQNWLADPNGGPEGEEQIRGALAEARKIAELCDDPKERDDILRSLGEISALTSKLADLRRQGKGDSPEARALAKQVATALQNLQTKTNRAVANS
Described as above.

The target in another assay is T3, vinculin D1D2 E143K (human, UniProt P18206 1-484, E143K).
T3 construct: vinculin, human, head subdomains D1 and D2, residues 1-484, with E143K
T3 sequence (looked up): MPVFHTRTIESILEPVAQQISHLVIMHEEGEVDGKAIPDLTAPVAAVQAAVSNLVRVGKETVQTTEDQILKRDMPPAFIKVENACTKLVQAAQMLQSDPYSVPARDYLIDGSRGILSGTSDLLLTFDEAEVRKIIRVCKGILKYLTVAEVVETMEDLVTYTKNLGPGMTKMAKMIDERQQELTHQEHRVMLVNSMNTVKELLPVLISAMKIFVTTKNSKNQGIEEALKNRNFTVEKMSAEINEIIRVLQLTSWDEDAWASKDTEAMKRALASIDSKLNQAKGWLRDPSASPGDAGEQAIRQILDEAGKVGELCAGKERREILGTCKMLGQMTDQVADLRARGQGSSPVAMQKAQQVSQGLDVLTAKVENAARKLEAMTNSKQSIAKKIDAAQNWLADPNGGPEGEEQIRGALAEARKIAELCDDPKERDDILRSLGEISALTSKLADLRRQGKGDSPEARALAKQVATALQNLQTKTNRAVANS
Described as above.

The next assay concerns the target T4, vinculin D1D2 V367D (human, UniProt P18206 1-484, V367D).
T4 construct: vinculin, human, head subdomains D1 and D2, residues 1-484, with V367D
T4 sequence (looked up): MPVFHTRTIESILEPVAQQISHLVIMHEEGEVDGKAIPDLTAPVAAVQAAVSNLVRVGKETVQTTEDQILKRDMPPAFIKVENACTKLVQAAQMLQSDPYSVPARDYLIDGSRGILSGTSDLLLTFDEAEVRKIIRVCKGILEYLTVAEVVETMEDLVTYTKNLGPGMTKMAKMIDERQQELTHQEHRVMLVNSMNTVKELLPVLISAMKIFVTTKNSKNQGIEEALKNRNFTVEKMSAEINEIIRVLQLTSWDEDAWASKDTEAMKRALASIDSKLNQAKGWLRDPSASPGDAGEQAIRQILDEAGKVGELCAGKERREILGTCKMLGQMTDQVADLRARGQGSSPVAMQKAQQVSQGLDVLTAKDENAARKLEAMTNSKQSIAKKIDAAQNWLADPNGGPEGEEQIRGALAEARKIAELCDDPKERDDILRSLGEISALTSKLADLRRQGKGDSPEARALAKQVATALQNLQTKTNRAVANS
Described as above.

Another assay concerns the target T5, vinculin D1D2 K386D (human, UniProt P18206 1-484, K386D).
T5 construct: vinculin, human, head subdomains D1 and D2, residues 1-484, with K386D
T5 sequence (looked up): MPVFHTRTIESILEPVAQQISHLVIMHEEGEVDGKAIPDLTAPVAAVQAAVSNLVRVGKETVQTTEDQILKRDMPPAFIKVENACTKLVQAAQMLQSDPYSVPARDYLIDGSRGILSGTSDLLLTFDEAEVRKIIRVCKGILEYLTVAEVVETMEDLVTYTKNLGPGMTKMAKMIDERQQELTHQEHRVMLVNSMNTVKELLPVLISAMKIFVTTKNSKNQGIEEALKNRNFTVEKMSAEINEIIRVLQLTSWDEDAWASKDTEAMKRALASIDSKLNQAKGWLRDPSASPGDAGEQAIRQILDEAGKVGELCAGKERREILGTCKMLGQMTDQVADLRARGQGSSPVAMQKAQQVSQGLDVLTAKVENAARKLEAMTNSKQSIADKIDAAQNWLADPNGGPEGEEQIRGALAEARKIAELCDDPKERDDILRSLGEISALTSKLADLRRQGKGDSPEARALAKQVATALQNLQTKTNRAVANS
The assay is described as above.

The target in a further assay is T6, vinculin D1D2 K139E (human, UniProt P18206 1-484, K139E).
T6 construct: vinculin, human, head subdomains D1 and D2, residues 1-484, with K139E
T6 sequence (looked up): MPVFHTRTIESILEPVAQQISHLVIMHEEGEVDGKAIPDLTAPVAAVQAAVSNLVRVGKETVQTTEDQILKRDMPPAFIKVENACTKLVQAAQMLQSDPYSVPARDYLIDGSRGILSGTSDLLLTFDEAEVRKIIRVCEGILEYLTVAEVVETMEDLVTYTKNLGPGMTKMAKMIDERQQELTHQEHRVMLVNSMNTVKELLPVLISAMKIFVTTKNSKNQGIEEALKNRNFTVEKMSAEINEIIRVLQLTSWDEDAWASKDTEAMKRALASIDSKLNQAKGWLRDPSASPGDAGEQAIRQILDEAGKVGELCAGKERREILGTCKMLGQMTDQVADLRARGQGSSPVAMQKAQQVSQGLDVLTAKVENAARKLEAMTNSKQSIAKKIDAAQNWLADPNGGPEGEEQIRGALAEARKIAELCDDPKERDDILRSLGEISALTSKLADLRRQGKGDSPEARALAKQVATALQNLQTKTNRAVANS
The assay is described as above.

In the next assay the target is T7, vinculin D1D2 N393D (human, UniProt P18206 1-484, N393D).
T7 construct: vinculin, human, head subdomains D1 and D2, residues 1-484, with N393D
T7 sequence (looked up): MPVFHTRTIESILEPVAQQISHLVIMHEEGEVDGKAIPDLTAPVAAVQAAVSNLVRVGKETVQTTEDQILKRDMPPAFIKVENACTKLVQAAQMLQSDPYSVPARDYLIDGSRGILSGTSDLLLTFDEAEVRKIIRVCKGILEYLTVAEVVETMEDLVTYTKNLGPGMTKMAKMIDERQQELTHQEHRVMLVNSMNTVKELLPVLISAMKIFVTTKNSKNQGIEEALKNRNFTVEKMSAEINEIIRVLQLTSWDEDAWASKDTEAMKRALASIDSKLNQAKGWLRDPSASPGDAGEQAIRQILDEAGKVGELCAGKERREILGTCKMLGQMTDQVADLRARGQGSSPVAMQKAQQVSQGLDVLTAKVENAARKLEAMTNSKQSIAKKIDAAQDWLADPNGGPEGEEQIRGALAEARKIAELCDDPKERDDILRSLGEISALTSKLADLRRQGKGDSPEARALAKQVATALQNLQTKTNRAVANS
Described as above.

B1: IpaA domain containing all three IpaA VBS1-3 (aVBD) (domain or fragment)
chain: GDTYLTRETIFEASKKVTNSLSNLISLIGTKSGTQERELQEKSKDITKSTTEHRINNKLKVTDANIRNYVTETNADTIDKNHAIYEKAKEVSSALSKVLSKIDDTSAELLTDDISDLKNNNDITAENNNIYKAAKDVTTSLSKVLKNINKD
notes: The plasmid is said to be described previously; also called A483; source: E. coli DH5-α, pGEX-4T2-aVBD, purified (GSTrap, thrombin on the column, SEC on Superdex 200)
Turning to B1, the “stoichiometry N” value in assay [1] was 3.2 D1D2:aVBD molar ratio. The “rate of monomer disappearance” value was -1.06 AU^−1 in assay [2]; -1.06 AU^−1 in the assay with vinculin D1D2 D389R; -0.88 AU^−1 with vinculin D1D2 E143K; -0.88 AU^−1 with vinculin D1D2 V367D; -1.29 AU^−1 with vinculin D1D2 K386D; -1.42 AU^−1 with vinculin D1D2 K139E. In addition, the “rate of monomer disappearance” value with vinculin D1D2 N393D was -1.32 AU^−1.
